Source: article PMC13016609, “UV irradiation alters TFAM binding specificity and compaction of DNA”

Legend:
TFAM (no MTS) [1] = target: T1, TFAM (no MTS) (Homo sapiens, UniProt Q00059 43-246); experiment: fluorescence anisotropy; Hill n 5.06±0.09; FP: 25 mM HEPES, 10 mM Mg(OAc)2, 25 mM NaOAc, 75 mM KOAc, pH 7.5, 1 nM DNA, TFAM 0-15 nM diluted on ice (read temperature not stated); AFM oligos: on ice, 2 min; details: protein: recombinant; label: 5' 6-FAM on strand 1 (FP); blunt
T1 sequence: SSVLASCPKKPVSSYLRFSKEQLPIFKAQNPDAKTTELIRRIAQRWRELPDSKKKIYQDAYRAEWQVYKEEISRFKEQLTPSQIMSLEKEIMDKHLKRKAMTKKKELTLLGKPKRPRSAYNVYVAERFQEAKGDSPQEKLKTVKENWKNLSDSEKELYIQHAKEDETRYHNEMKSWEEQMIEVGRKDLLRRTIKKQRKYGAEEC

TFAM (no MTS) [2] = target: T1, TFAM (no MTS); experiment: fluorescence anisotropy; +UVC; Hill n 4.76±0.11; FP: 25 mM HEPES, 10 mM Mg(OAc)2, 25 mM NaOAc, 75 mM KOAc, pH 7.5, 1 nM DNA, TFAM 0-15 nM diluted on ice (read temperature not stated); AFM oligos: on ice, 2 min; details: protein: recombinant; label: 5' 6-FAM on strand 1; blunt
TFAM (no MTS) [3] = target: T1, TFAM (no MTS); experiment: fluorescence anisotropy; Hill n 3.85±0.49; FP: 25 mM HEPES, 10 mM Mg(OAc)2, 25 mM NaOAc, 75 mM KOAc, pH 7.5, 1 nM DNA, TFAM 0-15 nM diluted on ice (read temperature not stated); AFM oligos: on ice, 2 min; details: protein: recombinant; label: 5' 6-FAM on strand 1 (FP); blunt
TFAM (no MTS) [4] = target: T1, TFAM (no MTS); experiment: fluorescence anisotropy; +UVC; Hill n 2.94±0.40; FP: 25 mM HEPES, 10 mM Mg(OAc)2, 25 mM NaOAc, 75 mM KOAc, pH 7.5, 1 nM DNA, TFAM 0-15 nM diluted on ice (read temperature not stated); AFM oligos: on ice, 2 min; details: protein: recombinant; label: 5' 6-FAM on strand 1; blunt
TFAM (no MTS) [5] = target: T1, TFAM (no MTS); experiment: fluorescence anisotropy; Hill n 2.40±0.43; FP: 25 mM HEPES, 10 mM Mg(OAc)2, 25 mM NaOAc, 75 mM KOAc, pH 7.5, 1 nM DNA, TFAM 0-15 nM diluted on ice (read temperature not stated); AFM oligos: on ice, 2 min; details: protein: recombinant; label: 5' 6-FAM on strand 1; blunt
TFAM (no MTS) [6] = target: T1, TFAM (no MTS); experiment: fluorescence anisotropy; +UVC; Hill n 2.20±0.13; FP: 25 mM HEPES, 10 mM Mg(OAc)2, 25 mM NaOAc, 75 mM KOAc, pH 7.5, 1 nM DNA, TFAM 0-15 nM diluted on ice (read temperature not stated); AFM oligos: on ice, 2 min; details: protein: recombinant; label: 5' 6-FAM on strand 1; blunt
TFAM (no MTS) [7] = target: T1, TFAM (no MTS); experiment: fluorescence anisotropy; Hill n 2.64±0.22; FP: 25 mM HEPES, 10 mM Mg(OAc)2, 25 mM NaOAc, 75 mM KOAc, pH 7.5, 1 nM DNA, TFAM 0-15 nM diluted on ice (read temperature not stated); AFM oligos: on ice, 2 min; details: protein: recombinant; label: 5' 6-FAM on strand 1; blunt
TFAM (no MTS) [8] = target: T1, TFAM (no MTS); experiment: fluorescence anisotropy; +UVC; Hill n 2.61±0.25; FP: 25 mM HEPES, 10 mM Mg(OAc)2, 25 mM NaOAc, 75 mM KOAc, pH 7.5, 1 nM DNA, TFAM 0-15 nM diluted on ice (read temperature not stated); AFM oligos: on ice, 2 min; details: protein: recombinant; label: 5' 6-FAM on strand 1; blunt
TFAM (no MTS) [9] = target: T1, TFAM (no MTS); experiment: fluorescence anisotropy; Hill n 2.84±0.14; FP: 25 mM HEPES, 10 mM Mg(OAc)2, 25 mM NaOAc, 75 mM KOAc, pH 7.5, 1 nM DNA, TFAM 0-15 nM diluted on ice (read temperature not stated); AFM oligos: on ice, 2 min; details: protein: recombinant; label: 5' 6-FAM on strand 1; blunt
TFAM (no MTS) [10] = target: T1, TFAM (no MTS); experiment: fluorescence anisotropy; +UVC; Hill n 2.27±0.26; FP: 25 mM HEPES, 10 mM Mg(OAc)2, 25 mM NaOAc, 75 mM KOAc, pH 7.5, 1 nM DNA, TFAM 0-15 nM diluted on ice (read temperature not stated); AFM oligos: on ice, 2 min; details: protein: recombinant; label: 5' 6-FAM on strand 1; blunt

B1: ND4_473 (dsDNA)
DNA 1: CGGCGCAGTCATTCTCATAATCGCCCACGGGCT
DNA 2: AGCCCGTGGGCGATTATGAGAATGACTGCGCCG
Work on B1 yielded a Kd (TFAM (no MTS) [1]) of 4.95 ± 0.03 nM.

B2: ND4_473 +UVC (dsDNA)
DNA 1: CGGCGCAGTCATTCTCATAATCGCCCACGGGCT
DNA 2: AGCCCGTGGGCGATTATGAGAATGACTGCGCCG
modifications: UVC 1500 J/m2 photolesions (positions undefined)
B2 showed a Kd (TFAM (no MTS) [2]) of 5.36 ± 0.14 nM.

B3: ND1_353 (dsDNA)
DNA 1: ATTATTATAATAAACACCCTCACCACTACAATC
DNA 2: GATTGTAGTGGTGAGGGTGTTTATTATAATAAT
Work on B3 yielded a Kd (TFAM (no MTS) [3]) of 7.56 ± 0.34 nM.

B4: ND1_353 +UVC (dsDNA)
DNA 1: ATTATTATAATAAACACCCTCACCACTACAATC
DNA 2: GATTGTAGTGGTGAGGGTGTTTATTATAATAAT
modifications: UVC 1500 J/m2 photolesions (positions undefined)
Work on B4 yielded a Kd (TFAM (no MTS) [4]) of 7.66 ± 0.88 nM.

B5: ND1_450 (dsDNA)
DNA 1: ACTCACCCTAGCATTACTTATATGATATGTCTC
DNA 2: GAGACATATCATATAAGTAATGCTAGGGTGAGT
B5 was tested, and the Kd (TFAM (no MTS) [5]) was 4.33 ± 0.17 nM.

B6: ND1_450 +UVC (dsDNA)
DNA 1: ACTCACCCTAGCATTACTTATATGATATGTCTC
DNA 2: GAGACATATCATATAAGTAATGCTAGGGTGAGT
modifications: UVC 1500 J/m2 photolesions (positions undefined)
B6 was tested, and the Kd (TFAM (no MTS) [6]) was 6.36 ± 0.51 nM.

B7: ND2_401 (dsDNA)
DNA 1: CAAATGGGCCATTATCGAAGAATTCACAAAAAA
DNA 2: TTTTTTGTGAATTCTTCGATAATGGCCCATTTG
B7 was tested, and the Kd (TFAM (no MTS) [7]) was 4.36 ± 0.24 nM.

B8: ND2_401 +UVC (dsDNA)
DNA 1: CAAATGGGCCATTATCGAAGAATTCACAAAAAA
DNA 2: TTTTTTGTGAATTCTTCGATAATGGCCCATTTG
modifications: UVC 1500 J/m2 photolesions (positions undefined)
B8 gave a Kd (TFAM (no MTS) [8]) of 6.24 ± 0.15 nM.

B9: ND6_87 (dsDNA)
DNA 1: TTCCTACACTATTAAAGTTTACCACAACCACCA
DNA 2: TGGTGGTTGTGGTAAACTTTAATAGTGTAGGAA
In the case of B9, the Kd (TFAM (no MTS) [9]) is reported as 5.2 ± 0.32 nM.

B10: ND6_87 +UVC (dsDNA)
DNA 1: TTCCTACACTATTAAAGTTTACCACAACCACCA
DNA 2: TGGTGGTTGTGGTAAACTTTAATAGTGTAGGAA
modifications: UVC 1500 J/m2 photolesions (positions undefined)
B10 gave a Kd (TFAM (no MTS) [10]) of 7.63 ± 0.21 nM.
